Literature values, collected in patent US20240401145A1, “METHOD FOR PREDICTING THE RESPONSE OF A PATIENT DIAGNOSED WITH CANCER TO TREATMENT AND/OR IMAGING WITH A COMPOUND TARGETING CCK2-R, AND COMPOUND FOR USE IN METHODS OF SELECTIVELY TREATING AND/OR IMAGING CANCER” (Paul Scherrer Institut, priority 2021, published 2024).
Ends that are not written are not given here.

How the values were obtained:
[1] = gastrin analogues labeled with a radionuclide such as 111In; reported from WO 2015/067473 A1
[2] = system: transplanted CCKBR-expressing A431 cells; conditions: biodistribution in animal models; reported from WO 2015/067473 A1
[3] = biological target: T1, CCK2-R (Homo sapiens, UniProt P32239); conditions: known from prior art
T1 sequence (P32239 1-447): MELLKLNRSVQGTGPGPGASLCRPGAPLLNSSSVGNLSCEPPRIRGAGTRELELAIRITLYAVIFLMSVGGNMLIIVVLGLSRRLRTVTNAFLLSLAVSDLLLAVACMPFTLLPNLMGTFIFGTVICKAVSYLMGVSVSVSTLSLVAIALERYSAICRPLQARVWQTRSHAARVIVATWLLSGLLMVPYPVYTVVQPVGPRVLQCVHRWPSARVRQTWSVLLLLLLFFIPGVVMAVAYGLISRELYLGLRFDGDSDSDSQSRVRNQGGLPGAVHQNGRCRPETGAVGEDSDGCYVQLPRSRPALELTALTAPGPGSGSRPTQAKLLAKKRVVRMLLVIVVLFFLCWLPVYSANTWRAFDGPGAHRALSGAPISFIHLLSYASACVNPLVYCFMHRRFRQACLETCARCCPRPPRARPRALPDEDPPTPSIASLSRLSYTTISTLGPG

| Substance | chemical stability (resistance to proteolysis and oxidation) [1] | accumulation in the kidneys [2] | uptake in transplanted CCKBR-expressing A431 cells [2] | affinity of binding to CCK2-R [3] |
| --- | --- | --- | --- | --- |
| DOTA-(DGln)6-Ala-Tyr-Gly-Trp-Nle-Asp-Phe-NH2 [PP-F10N, reference compound] | good | low accumulation | good uptake |  |
| DOTA-(DGlu)6-Ala-Tyr-Gly-Trp-Nle-Asp-Phe-NH2 [PP-F11N] | good | low accumulation | good uptake |  |
| minigastrin: small peptide hormone known to bind CCK2-R with high affinity (WLEEEEEAYGWMDF; ends and bridges not checked; UniProt P01350 79-92, looked up) |  |  |  | high affinity |
